Results on 2 molecules are retold here after patent WO2018224439A1 (dated 2018).

The target in test [1] is T1, human serum albumin (human, UniProt P02768 25-609).
T1 construct: Coupled by amine chemistry to the SPR chip; also called HSA; human SA
Briefly: SPR; sc02 against sc01; this end fits human SA pH 5.5 in Table 3.

The next test deals with T2, cynomolgus serum albumin (cynomolgus, UniProt A2V9Z4 25-608).
T2 construct: also called cynomolgus SA
Nature of the test: SPR; sc02 against sc01; this end fits cynomolgus SA pH 5.5 in Table 3. Background: Surface plasmon resonance follows binding to a sensor surface in real time, without labels.

The target of test [2] is T1, human serum albumin. Briefly: SPR; sc02 against sc01.

B1: 19-01-H04-sc02 (scFv, V domains shown)
VH: EVQLVESGGGLVQPGGSLRLSCAASGFSLSSNAMGWVRQAPGKGLEYIGIISVGGFTYYASWAKGRFTISRDNSKNTVYLQMNSLRAEDTATYFCARDRHGGDSSGAFYLWGQGTLVTVSS
VL: DIQMTQSPSSLSASVGDRVTITCQSSESVYSNNQLSWYQQKPGQPPKLLIYDASDLASGVPSRFSGSGSGTDFTLTISSLQPEDFATYYCAGGFSSSSDTAFGGGTKLTVLG
notes: Humanized scFv (STR graft); also called 19-01-H04-sc02 STR; 19-01-H04-SC02 STR
For B1, the “fold improvement of affinity (STR graft over CDR graft)” value with human serum albumin [1] and with cynomolgus serum albumin was 20 to 300 fold throughout.

B2: 23-13-A01-sc02 (scFv, V domains shown)
VH: EVQLVESGGGLVQPGGSLRLSCAASGFSFSSSYWICWVRQAPGKGLEWVGCVFTGDGTTYYASWAKGRFTISRDNSKNTVYLQMNSLRAEDTATYFCARPVSVYYYGMDLWGQGTLVTVSS
VL: DVVMTQSPSSLSASVGDRVTITCQASQIISSRSAWYQQKPGQPPKLLIYQASKLASGVPSRFSGSGSGTDFTLTISSLQPEDFATYYCQCTYIDSNFGAFGGGTKLTVLG
notes: Humanized scFv (STR graft); also called 23-13-A01-sc02 STR; 23-13-A01-SC02 STR
As for B2, the “fold improvement of affinity (STR graft over CDR graft)” value in the test with human serum albumin [2] was around 3 fold.
